Experimental data reported in patent publication US20250043290A1, “RNA SEQUENCES THAT INDUCE FLUORESCENCE OF SMALL MOLECULE FLUOROPHORES, MOLECULAR COMPLEXES, SENSORS, AND METHODS OF USE THEREOF” (CORNELL UNIVERSITY, priority 2021, published 2025).

Experiments:
[1] = Fluorescence activation of DFHBI-1T by aptamers in vitro; type: biochemical
Excerpt: FIG. 1A is a schematic illustrating the strategy for evolution of the add A-riboswitch aptamer. Indicated are helices P1-P3, junctional strands (J1/2, J2/3, J3/1), kissing loop (gray lines), and adenine interactions with the aptamer (dotted line) (5′-CUUCAUAUAAUCCUAAUGAUAUGGUUUGGGAGUUUCUACCAAGAGCCUUAAACUCUUGAUUAUGAAG-3′ (SEQ ID NO:36)). The chemical structure of adenine and fluorophores are shown. Three regions (Region 1: 5′-UAU AAU-3′ (SEQ ID NO:37)), Region 2: 5′-AGU UUC UAC C-3′ (SEQ ID NO:38); Region 3: 5′-GAU UAU-3′ SEQ ID NO:39), which include J1/2, J2/3, and J3/1 were randomized in both size and sequence resulting in a sprouts/clips library for SELEX. Each nucleotide in the colored regions was replaced using a combination of random stochastic deletion (designated “N”) and random stochastic insertion (designated “n”). FIG. 1B is schematic showing a three dimensional structure of the add A-riboswitch aptamer highlighting the adenine-binding pocket (PDB 1Y26). The mutagenized regions are shown in the same color as FIG. 1A. Adenine is indicated by the arrow. FIG. 1C is a schematic illustrating the evolution of the add A-riboswitch aptamer into Squash, a DFHBI-1T-binding aptamer. The sprouts/clips library was selected for binding to DFHBI-conjugated agarose resulting in aptamer 9-1. Aptamer 9-1 was subjected to two consecutive rounds of directed evolution generating DE2-6. A pair of mutations was introduced in DE2-6 to strengthen the kissing loop interaction resulting in Squash. FIG. 1D is a graph showing fluorescence activation of DFHBI-1T by different aptamer intermediates that led to Squash. The values inside the bars indicate fold-activation of DFHBI-1T fluorescence by the corresponding aptamer. Data represent mean values±s.d. for n=3 independent experiments. […]
FIG. 6A is a bar graph showing fluorescence activation of DFHO by Squash and its precursors. Fluorescence was measured with 200 nM dye and 10 μM RNA (ex: 495 nm, em: 562 nm, except for Corn; ex: 505 nm, em: 545 nm). […] FIG. 6B is a bar graph showing fluorescence of initial hits after Round 7 of SELEX. In vitro transcribed RNAs from each hit (1 μM final) were mixed with DFHBI-1T (10 μM final) and the fluorescence was measured (ex: 452 nm, em: 503 nm, except for Broccoli; ex: 472 nm, em: 507 nm). […] FIGS. 6C-6D are bar graphs showing fluorescence measurements of the hits with DFHBI-1T after first (FIG. 6C) and second (FIG. 6D) round of directed evolution, measured as in FIG. 6B. […] FIG. 6E is a bar graph showing fluorescence measurements of hits using DFHO after the second round of directed evolution measured as in FIG. 6A. The fluorescence of the hits were normalized against Corn. […] FIG. 6F is a graph showing normalized fluorescence. […] Fluorescence was measured as in FIG. 6A. […]

[2] = Dissociation constant of RNA-fluorophore complex, titration with DFHBI-1T; type: binding; conditions: 50 nM RNA, one-site saturation model
Method: FIGS. 7A-7H provide photophysical and biophysical characterization of Squash. […] Excess RNA was used to ensure binding of nearly all fluorophore. […] Data represent mean values±s.d. for n=3 independent experiments. […] The fluorescence signal trace was fitted with a monoexponential curve to extract kobs. kobs was plotted as a function of total RNA (50 nM RNA) and fluorophore concentration. kon and koff were extracted as the slope and intercept, respectively. Squash koff (0.014±0.008 s^−1) is very similar to that of Corn (0.018±0.002 s^−1). kon for Squash-DFHO (162300±8100 M^−1 s^−1) is seven-times higher than Corn-DFHO (23000±3000 M^−1 s^−1) which could be due to the high folding of Squash. […]
Dissociation constants (Kd) for the RNA-fluorophore complexes were determined as described previously (Paige et al., “RNA Mimics of Green Fluorescent Protein,” Science 333:642-646 (2011) and Filonov et al., “Broccoli: Rapid Selection of an RNA Mimic of Green Fluorescent Protein by Fluorescence-Based Selection and Directed Evolution,” J. Am. Chem. Soc. 136: 16299-16308 (2014), which are hereby incorporated by reference in their entirety). In brief, the RNA aptamer at a fixed concentration (50 nM) was titrated with increasing fluorophore concentration and the resulting increase in fluorescence was recorded. […]

B1: Squash: fluorogenic RNA aptamer evolved from the add A-riboswitch aptamer, binds DFHBI-1T and DFHO; SEQ ID NO: 12 (SEQ ID NO: 1) (nucleic acid)
chain: AGGUGAGCCCAAUAAUACGGUUUGGGUUAGGAUAGGAAGUAGAGCCGUAAACUCUCUAAGCG
modifications: RNA, backbone not given here
Fold activation of DFHBI-1T fluorescence [1]: 1064 fold | Kd [2]: 45 nM
